Assay results taken from paper doi:10.1101/041756.
Where two headings read alike, the source gives them in different places.

Legend:
[1] = molecular target: microtubules (human (endogenous in HeLa)) (UniProt P68363)
[2] = molecular target: microtubules (human (endogenous in HeLa)) (UniProt P68363); remark: listed apart in the source

Sequence of UniProt P68363 (P68363 whole entry): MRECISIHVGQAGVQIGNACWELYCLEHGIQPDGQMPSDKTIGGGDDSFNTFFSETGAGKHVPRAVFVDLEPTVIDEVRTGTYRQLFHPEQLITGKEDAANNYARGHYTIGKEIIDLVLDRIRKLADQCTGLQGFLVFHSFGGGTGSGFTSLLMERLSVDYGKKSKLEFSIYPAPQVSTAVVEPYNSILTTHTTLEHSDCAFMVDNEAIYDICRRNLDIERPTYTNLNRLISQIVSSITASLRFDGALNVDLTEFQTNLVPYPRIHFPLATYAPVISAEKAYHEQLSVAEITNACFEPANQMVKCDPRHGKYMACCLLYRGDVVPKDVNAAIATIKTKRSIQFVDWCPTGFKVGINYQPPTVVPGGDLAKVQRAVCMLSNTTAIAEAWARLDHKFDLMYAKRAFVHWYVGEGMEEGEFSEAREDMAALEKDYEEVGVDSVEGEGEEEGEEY

AT8mut-CST (S199A/S202A/T205A)
FRAP in living reporter cells: mobile fraction [1]: 57%
FRAP in living reporter cells: τ2 [1]: 46.8

Conformational-Sensitive Tau sensor (ECFP-Tau-EYFP, full length Tau-D, 0N4R) (from UniProt P10636-6 1-383)
FRAP in living reporter cells: mobile fraction [2]: 73%
FRAP in living reporter cells: τ1 of the MTs-bound phase [2]: 30 s

P301S-CST
FRAP in living reporter cells: mobile fraction [1]: 85%

S422E-CST
FRAP in living reporter cells: mobile fraction [1]: 86%

P301L-CST
FRAP in living reporter cells: diffusive fraction [1]: 38%
FRAP in living reporter cells: mobile fraction [1]: 84%
